According to the supplement of paper PMC9170038:

Test system: K4 kissing-loop RNA reporter
Test: apparent KD of K4 kissing-loop reporter; higher = weaker reporter binding
Settings: Eterna round: R107
Method: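 RNA-MaP round R107: designed RNA switches with theophylline, tryptophan, arginine or FMN aptamers are transcribed on-chip within common flanks. They are titrated with a labelled K4 kissing-loop RNA reporter in RNA-MaP buffer (100 mM Tris pH 7.5, 80 mM KCl, 4 mM MgCl2), without ligand or with the indicated ligand. Median apparent KD per design.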

[1] = input ligand: theophylline 20 uM
[2] = input ligand: tryptophan 2.4 mM
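Also: bound reporter read as fluorescence of individual clusters on recovered sequencing chips by microscopy, with normalized cluster intensities fitted with a binding model.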

Sequence | apparent KD of K4 kissing-loop reporter (input ligand: FMN 200 uM) | apparent KD of K4 kissing-loop reporter (input ligand: arginine 13.2 mM) | apparent KD of K4 kissing-loop reporter (input ligand: none) | apparent KD of K4 kissing-loop reporter [1] | apparent KD of K4 kissing-loop reporter [2]
CGUGAGUGCCGUCAGUCAUCGGUCCAUGCACGAGGACCGGUACGGCCGCCACUCGAGCGUGGCAGUGAUGUUGCCAGCGCACUAA [KL-XTryp-A12] | 117 nM | 98.7 nM | 103 nM | 112 nM | 89.4 nM
AUUUUUUUAUCAGGAUAUUAGUGAUGUUUGUUUUUGUUAGUGAUGUUGAUAUUUGUUUUAUGUAUUUAAGAAGGGAUUGAGAUGU [sfsmullin] | 46.4 nM | 15.5 nM | 28.2 nM | 19.9 nM | 42.4 nM
CUUAUUUCUCGCUAUGAUGUUAGUUGAGCCAAGGAUAUUAAUGAAUUAAGAAGGUGGGUUUUUAAGUGAUGUUUUGAGACUGGCA [theeternabot_exclusion_KL_FMN_A_27] | 793 nM | 718 nM | 863 nM | 727 nM | 568 nM
GUACCAGUGAUGUUGGUAGGCGAGCGGGAUACCAGCCAAGACUCAGGCCCUUGGCAGCCCACAUAUCCCACGUAGGUAGUAGCUC [Same State - Theophylline A (Freestyle 17)] | 96 nM | 103 nM | 105 nM | 110 nM | 92.9 nM
AGUACAAUGGCGGCCGCCACUCAACGCAGAUCAAAGAUCUGCAUUCACUCAGUGAUGUUGAGUGAGAGGACCGGGCCUUUGUACA [Omei KL Tryp B SS B v1] | 701 nM | 581 nM | 637 nM | 580 nM | 189 nM
GCAGGAUAGCGCGGUGCAGUGAUGUUGCACCGAGGACCGGUACGGCCGCCACUCGCUUAGAUAUCGUGUGAUGGGUAUGUCUAGA [theeternabot_exclusion_KL_Trp_A_8] | 116 nM | 110 nM | 123 nM | 94 nM | 119 nM
GGAUAGGAUAGAGGAUAUGGACUAGGCAAGAAUAACUUGUCUAGUAAAUCCAUGAGGAGUGAUGUUCCAGAAGGCUGUCCUAUCG [MatMod 3 - Jieux - Exclusion - FMN B] | 514 nM | 200 nM | 226 nM | 224 nM | 185 nM
AUUAUAUAGGCGGCCGCCACUAGUGAUGUUAGUGACUUUAUGAAAACAUAAAGAAUAAAAUAAUAUAGGACCGGGCCAUAAUAUU [AstrosExTryB#5] | 475 nM | 369 nM | 450 nM | 427 nM | 432 nM
GCAGACACGCAGUGAUGUUGCGAAACGGAAGGAGCGCGUGAAAACGCAGGUAGGUCGCCGACACAUUAAUUAUAAUUUUGUUUGC [Arginine A K4 15] | 279 nM | 241 nM | 270 nM | 274 nM | 200 nM
UGUGGAGAAUAUGAUACCAGCAGUGAGAGAGAGGAAGUAUAGUGAUGUUAUAUGAGAGAAUGCCCUUGGCAGCAUAAGAAGAAGG [SSTheophylB.D] | 216 nM | 155 nM | 170 nM | 277 nM | 186 nM
AAGCAGUCCCUCGAAGCCAUCGAAGAUGGGCGAGGACCGGUACGGCCGCCACUCGGAGUGAUGUUCCGAAGACUGCAAAAUAAAA [MatMod 3 - Jieux - Exclusion - Tryptophan A] | 367 nM | 316 nM | 192 nM | 273 nM | 185 nM
UGGAGUUGACGAAAAGUCAACUCCUGAGAUACCAGUGACGAAAGUCACCCUUGGCAGCUCACUGCCAGUGAUGUUGGUUUAUAAA [#OpenEnded 2] | 167 nM | 135 nM | 134 nM | 266 nM | 130 nM
GUACGCUCUCGAGUGAUGUUCGGUAAUCGCUAGGAUAUCGCUUUUGCGAGAAGGAGCGGAAUGAGGAAACUCGUUCUGAGUGUAC [FMN A 22] | 452 nM | 295 nM | 447 nM | 325 nM | 476 nM
UUGGAAAUCAGAAGGAGCGUCUAAAAUAAGAGAACCAGUGAUGUUGGUUUUAUUUAAUGAAGACAGGUAGGUCGCUGAAUUUUUA [Same State Arginie B GF 19] | 100 nM | 95.2 nM | 99.3 nM | 96.1 nM | 94.9 nM
GGUGCCGGGCAAGGAUAUUAGUCGAGUGAUGUUCGGCGGUCCAAGUCGUUGCGGCGUUAAACCCUUUGAGAAGGUGCCCGGUGCC [#2 Exclusion - FMN B Attempt #1 (HarryS)] | 198 nM | 144 nM | 193 nM | 195 nM | 163 nM
ACUACGAAGACGGCCGCCACUGAUAUUCGUAGAUCCAUCAUUGCAUGAGUGAUGUUCAUGUAUAUCAGGACCGGGUCAAGAUGGU [KL-XTryp-B18 #analogue] | 295 nM | 245 nM | 305 nM | 282 nM | 213 nM
AGCCUUACAUCGGCCGCCACUUCCCUGGCAGUGAUGUUGCCGUAGACAAUCAUUCUACCCUGGAGAAGGACCGGGAUGCAGAAAC [theeternabot_sameState_KL_Trp_B_8] | 154 nM | 185 nM | 167 nM | 223 nM | 329 nM
GCCGUAGAUGGAAGGAGCGUGCCUUUCAGUUAUAGUGAUGUUAUAACCGAGGAACGGUUGGCACAGGUAGGUCGCCAUCUACGGC | 178 nM | 90.2 nM | 109 nM | 112 nM | 121 nM
AAGCGUAAAAUGGCGGACAUACUGCUCCCACGAGGACCGGUACGGCCGCCACUCGAAUGCGGCAGUGAUGUUGCCGCCUUCGCGU [Zauslereed] | 74 nM | 68.3 nM | 62.8 nM | 69.9 nM | 62.5 nM
CAGAACUUGUAUACAGGGUAUGUAAGAGAUACCAGUCAAAUUAAAGACCCUUGGCAGCUCAGGCGAGUGAUGUUCGCAGGCUAAC [Exclusion Theophylline A GF 18] | 103 nM | 118 nM | 115 nM | 116 nM | 99 nM
GAAUAAUAUGUACCAGUGAUGUUGGUACAACGAGGACCGGUACGGCCGCCACUCGGAUACGAGUGGAUACAUCACUGACCAUUCG [(H1)-(H2)-(Trp1)-(Trp2)-(T)'-(H)'-(T)''_Design9] | 326 nM | 308 nM | 368 nM | 413 nM | 252 nM

Sequence | apparent KD of K4 kissing-loop reporter (input ligand: FMN 200 uM) | apparent KD of K4 kissing-loop reporter (input ligand: arginine 13.2 mM) | apparent KD of K4 kissing-loop reporter (input ligand: none) | apparent KD of K4 kissing-loop reporter [1] | apparent KD of K4 kissing-loop reporter [2]
GCGAUUCAGUGAUGUUGGAAAUACAGGGAUACCAGCCGAGAAUAAGGCCCUUGGCAGCUUAAUAGGAAAGAACUAAGUAAGACGC [Theophylline A Same State; Euphoria Solution 2] | 574 nM | 569 nM | 877 nM | 616 nM | 402 nM
AGAUAGGGCUGAAGGAGCGUCGGAGAAGAGAAGAAGGAAUCCAGUGAUGUUGGAUAAAUCCGACAGGUAGGUCGCAGUUUUAUGA [hbob_SS_Arginine_B_2t138] | 108 nM | 126 nM | 99 nM | 109 nM | 115 nM
AAGUGAUGUUGUAGUGAUGUUGUGAUGUUGCAGGAUAUAUAGUGAUGUAGAAGGGUAUGUGCAGUGUUGUUGUUUGAGUGUUCAU [dttyumullin] | 95.4 nM | 41.8 nM | 73.7 nM | 74.7 nM | 68.4 nM
GGUGUUGUUUGUGCUGUUUUCCUCGUUCCUCGAGGACCGGUACGGCCGCCACUCGAGUGAUGUUUGGGUAGCGAUCCUUGUUAGU [Bdazzled - #7 Exc. Tryptophan A] | 336 nM | 226 nM | 341 nM | 264 nM | 441 nM
AGACUACUGACAGGAUAUAACAUACUAGCUCGUAUACCAAAGGUAUACGAGCACCUUCUAGUGAUGUUAGAAGGGUCGGUAGUCA [Omei KL FMN B Exc B v2] | 412 nM | 264 nM | 300 nM | 310 nM | 310 nM
GGCACUUUUGGUAGGAACCAUCUACCUCUAUAGGAUAUGCCGAAAGGCAGAAGGAUAGACCUACAGAGUGAUGUUCUGCGUGCCU | 573 nM | 150 nM | 330 nM | 203 nM | 211 nM
GGAUAGGAUAGAGGAUAUGGUUUAUGCAGAAAUAACUUAUUGUGUAAAUCCAUAGGGAGUGAUGUUCCAGAAGGCUGUCCUAUCG [MatMod 15 - Jieux - Exclusion - FMN B] | 316 nM | 187 nM | 209 nM | 241 nM | 180 nM
CACUUACGUAGUGAUGUUACGAUCUCUGAUACCAGACAACUCUAAGUCCCUUGGCAGCAGUCAUUUUGCUUUUAAUUUACUCAAA [JR_ExcTheophyA_Sub014] | 552 nM | 572 nM | 682 nM | 578 nM | 425 nM
UGUAUGGACUGAAGGAGCGGUAGAUAAACUGAGUGAUGUUCGGCAAAUAAAGGCGCAAGCCACCAGGUAGGUCGCAGUCCAUACU [KL-SSArg B1] | 289 nM | 182 nM | 235 nM | 236 nM | 205 nM
AAAAUAAUCCAGUGAUGUUGGUAUCCAGAUACCAGCCAGGAAACUGGCCCUUGGCAGCUGGCGACGUACAAAAUAAGUACGUCGU [#OpenEnded 11 #StaticStem #K4Early] | 405 nM | 184 nM | 470 nM | 664 nM | 374 nM
AAAUAUUCGAGUGAUGUUCGAUAAAUUUCAGAGGAUAUGCUUAAAAGCAGAAGGCUGUAUUUCUAUUUGUUAUGAAAUUUUAUAA [JR_ExcFMNA_Sub003] | 103 nM | 113 nM | 87.3 nM | 109 nM | 73.3 nM
UCUGUUGUAUAUGAUACCAGCAGUGAGAGACAGGAAGUAUAGUGAUGUUAUAUGAGAGAAUGCCCUUGGCAGCGUGUGCGGGUGG [SSTheophylB.X] | 138 nM | 130 nM | 165 nM | 116 nM | 99.1 nM
UGUUUUUACUGAAGGAGCGGCAAUUGAUACGUAGAUAUAGUGAUGUUAUAUAAGAUAGAGAGCCAGGUAGGUCGCAGAGUGUUUC [ExArgB.aA] | 250 nM | 195 nM | 194 nM | 194 nM | 172 nM
AAUUUGUAUUUAUUCUUUAAAUGUUCAGAAGGAGCGUGAAUUAUCACAGGUAGGUCGCUGAGCUAGUGAUGUUAGCUAUACACUA [#01 K4 Arginine A Exclusion] | 98.5 nM | 201 nM | 127 nM | 181 nM | 91 nM
UGUACCGAGUCAGGAUAUGGCGUCGAAAGACGAAUGCUAGUGAUGUUAGGGAUCUGCGAAAGCAGUCUAGAAGGGACUUGGUACU [FmnBS 26 G36+U68] | 359 nM | 361 nM | 471 nM | 483 nM | 525 nM
UAAUUUAUGUCUUUAAUUUUAUUAUCAGAUACCAGUGAUUUAUGACACCCUUGGCAGCUGUAUUGAGUGAUGUUCUUAUAUUAAA [JR_Nu_ExcTheophyA_Sub023] | 111 nM | 111 nM | 118 nM | 190 nM | 72.5 nM
AAUACUAUCAGAAGGAGCGUGGAAUAUUCAUCUGUAUCUAAUACGAGUGAUGUUCGUAAUUCACAGGUAGGUCGCUGAUCAAUAA [whbob_Ex_Arginine_B_2th156] | 246 nM | 249 nM | 267 nM | 269 nM | 213 nM
AAGCGUGUGGCGGCCGCCACUAGUCUCCAGUGAUGUUGGAGAUAUCACGUAAGUGAUAUCCGACAUAGGACCGGGCCAUAUGGAA [Same State - Tryptophan B (Freestyle 22)] | 587 nM | 299 nM | 813 nM | 612 nM | 207 nM
CACUUACGUAGUGAUGUUACGAUCUCUGAUACCAGACAACUCUAAGUCCCUUGGCAGCAGUCAUUUUGCUUAGUAUUUACUCAAA [JR_ExcTheophyA_Sub016] | 679 nM | 650 nM | 791 nM | 605 nM | 512 nM
GGCAGUGAUGUUGCCUAAGCAACGCAUGCGGAGGAUAUUCGUUCGGGAAGAAGGCCGCAGCGUUCUCUCGCGAGUGAUGUUCGCA [Same State FMN A GF 22] | 158 nM | 160 nM | 173 nM | 166 nM | 147 nM
UGCUUUAUCAGAAGGAGCGCGUUAUUCAUAAUAAUAAUCAGUGAUGUUGAUAUAUGAUGAUUGCAGGUAGGUCGCUGAUAUAGCU [KL-XARG-B3] | 310 nM | 225 nM | 274 nM | 253 nM | 259 nM
